{"source": "paper PMC5027563", "about": "“Functional Recovery of AQP2 Recessive Mutations Through Hetero-Oligomerization with Wild-Type Counterpart” (Scientific Reports, 2016)", "key": {"[1]": {"target": "T1, wild-type Aquaporin-2 (untagged) (human, UniProt P41181 1-271)", "T1 sequence (looked up)": "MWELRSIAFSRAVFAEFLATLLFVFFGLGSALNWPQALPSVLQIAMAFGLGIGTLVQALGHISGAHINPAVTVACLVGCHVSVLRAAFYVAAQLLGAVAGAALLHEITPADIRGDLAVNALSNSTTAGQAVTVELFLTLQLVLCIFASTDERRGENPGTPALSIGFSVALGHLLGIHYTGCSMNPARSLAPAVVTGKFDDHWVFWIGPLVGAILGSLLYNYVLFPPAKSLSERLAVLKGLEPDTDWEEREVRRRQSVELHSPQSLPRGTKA"}, "[2]": {"target": "T1, wild-type Aquaporin-2 (untagged)", "remark": "listed apart in the source"}, "[3]": {"target": "T1, wild-type Aquaporin-2 (untagged)", "experiment": "cell-based or functional assay"}, "[4]": {"target": "T2, GFP-tagged wild-type Aquaporin-2 (human, UniProt P41181 1-271)", "T2 construct": "Aquaporin-2 (AQP2), human, wild type, from pT7Ts-GFP-AQP2 (subcloned through the pAc-GFP vector); 58 kDa with GFP; also called GFP-wt-AQP2; GFP-tagged-WT; source: Xenopus laevis oocytes, cRNA injected; total membranes solubilised in 2% deoxycholate", "T2 sequence (looked up)": "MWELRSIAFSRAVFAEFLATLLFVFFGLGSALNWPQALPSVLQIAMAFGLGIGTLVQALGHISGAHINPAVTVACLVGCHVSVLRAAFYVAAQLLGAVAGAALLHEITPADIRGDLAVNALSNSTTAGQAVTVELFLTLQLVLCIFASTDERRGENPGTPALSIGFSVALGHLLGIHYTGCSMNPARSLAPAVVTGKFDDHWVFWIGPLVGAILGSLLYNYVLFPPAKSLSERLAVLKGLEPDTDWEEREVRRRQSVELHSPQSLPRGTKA", "experiment": "co-IP; Xenopus oocytes co-injected with 0.5 ng mRNA of an untagged AQP2 variant and 1 ng (equimolar) of a GFP-tagged form, 24 h; total membranes solubilised in 2% deoxycholate in PBS, 100,000 x g supernatant; IP with goat anti-GFP and protein-G magnetic beads at room temperature; blot with anti-AQP2 of the untagged 29 kDa band; densitometry in % of wt-AQP2, 4 assays", "conditions": "partners not purified"}, "[5]": {"target": "T3, GFP-tagged Aquaporin-2 D150E (human, UniProt P41181 1-271, D150E)", "T3 construct": "Aquaporin-2 (AQP2), human, recessive NDI mutation D150E, GFP-tagged form; The methods describe only how pT7Ts-GFP-AQP2 (wild type) was made; also called GFP-tagged D150E; source: Xenopus laevis oocytes, cRNA injected; total membranes solubilised in 2% deoxycholate", "T3 sequence (looked up)": "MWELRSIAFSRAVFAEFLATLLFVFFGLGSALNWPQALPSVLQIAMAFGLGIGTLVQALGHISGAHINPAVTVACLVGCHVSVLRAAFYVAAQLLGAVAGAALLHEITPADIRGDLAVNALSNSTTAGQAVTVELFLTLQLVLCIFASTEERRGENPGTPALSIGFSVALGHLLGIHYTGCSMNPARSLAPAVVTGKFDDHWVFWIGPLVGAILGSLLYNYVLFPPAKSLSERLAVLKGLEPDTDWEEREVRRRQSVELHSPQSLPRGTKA", "experiment": "co-IP; Xenopus oocytes co-injected with 0.5 ng mRNA of an untagged AQP2 variant and 1 ng (equimolar) of a GFP-tagged form, 24 h; total membranes solubilised in 2% deoxycholate in PBS, 100,000 x g supernatant; IP with goat anti-GFP and protein-G magnetic beads at room temperature; blot with anti-AQP2 of the untagged 29 kDa band; densitometry in % of wt-AQP2, 4 assays", "conditions": "partners not purified"}, "[6]": {"target": "T4, GFP-tagged Aquaporin-2 V24A (human, UniProt P41181 1-271, V24A)", "T4 construct": "Aquaporin-2 (AQP2), human, recessive NDI mutation V24A, GFP-tagged form; The methods describe only how pT7Ts-GFP-AQP2 (wild type) was made; also called GFP-tagged V24A; source: Xenopus laevis oocytes, cRNA injected; total membranes solubilised in 2% deoxycholate", "T4 sequence (looked up)": "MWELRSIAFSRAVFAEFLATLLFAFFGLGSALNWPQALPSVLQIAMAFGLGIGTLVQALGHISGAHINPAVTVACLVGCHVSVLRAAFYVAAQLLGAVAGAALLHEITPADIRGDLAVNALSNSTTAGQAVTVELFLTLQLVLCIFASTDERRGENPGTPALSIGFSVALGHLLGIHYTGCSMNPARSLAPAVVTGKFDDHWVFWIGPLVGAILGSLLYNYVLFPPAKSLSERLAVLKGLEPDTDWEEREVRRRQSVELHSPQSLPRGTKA", "experiment": "co-IP; Xenopus oocytes co-injected with 0.5 ng mRNA of an untagged AQP2 variant and 1 ng (equimolar) of a GFP-tagged form, 24 h; total membranes solubilised in 2% deoxycholate in PBS, 100,000 x g supernatant; IP with goat anti-GFP and protein-G magnetic beads at room temperature; blot with anti-AQP2 of the untagged 29 kDa band; densitometry in % of wt-AQP2, 4 assays", "conditions": "partners not purified"}}, "data": [{"binder": "Aquaporin-2 L22V (untagged) (natural protein) MWELRSIAFSRAVFAEFLATLVFVFFGLGSALNWPQALPSVLQIAMAFGLGIGTLVQALGHISGAHINPAVTVACLVGCHVSVLRAAFYVAAQLLGAVAGAALLHEITPADIRGDLAVNALSNSTTAGQAVTVELFLTLQLVLCIFASTDERRGENPGTPALSIGFSVALGHLLGIHYTGCSMNPARSLAPAVVTGKFDDHWVFWIGPLVGAILGSLLYNYVLFPPAKSLSERLAVLKGLEPDTDWEEREVRRRQSVELHSPQSLPRGTKA", "values": [{"measurement": "net increase (gain of function) in water permeability (Pf) of oocytes when expressed along wt-AQP2, in % of the wt-AQP2 activity (% of the wt-AQP2 activity)", "setting": "[1]", "value": 106}]}, {"binder": "Aquaporin-2 A147T (untagged) (natural protein) MWELRSIAFSRAVFAEFLATLLFVFFGLGSALNWPQALPSVLQIAMAFGLGIGTLVQALGHISGAHINPAVTVACLVGCHVSVLRAAFYVAAQLLGAVAGAALLHEITPADIRGDLAVNALSNSTTAGQAVTVELFLTLQLVLCIFTSTDERRGENPGTPALSIGFSVALGHLLGIHYTGCSMNPARSLAPAVVTGKFDDHWVFWIGPLVGAILGSLLYNYVLFPPAKSLSERLAVLKGLEPDTDWEEREVRRRQSVELHSPQSLPRGTKA", "values": [{"measurement": "net increase (gain of function) in water permeability (Pf) of oocytes when expressed along wt-AQP2, in % of the wt-AQP2 activity (% of the wt-AQP2 activity)", "setting": "[1]", "value": 45}]}, {"binder": "Aquaporin-2 R254Q (untagged) (natural protein) MWELRSIAFSRAVFAEFLATLLFVFFGLGSALNWPQALPSVLQIAMAFGLGIGTLVQALGHISGAHINPAVTVACLVGCHVSVLRAAFYVAAQLLGAVAGAALLHEITPADIRGDLAVNALSNSTTAGQAVTVELFLTLQLVLCIFASTDERRGENPGTPALSIGFSVALGHLLGIHYTGCSMNPARSLAPAVVTGKFDDHWVFWIGPLVGAILGSLLYNYVLFPPAKSLSERLAVLKGLEPDTDWEEREVRRQQSVELHSPQSLPRGTKA", "values": [{"measurement": "water permeability (Pf) of oocytes injected with 1 ng mRNA mixtures of wt/mut ratios 4/0 to 0/4, in % of pure wt-AQP2; the printed value is of the 2/2 ratio; dominant negative effect (% of pure wt-AQP2)", "setting": "[2]", "value": 14}]}, {"binder": "Aquaporin-2 T126M (untagged) (natural protein) MWELRSIAFSRAVFAEFLATLLFVFFGLGSALNWPQALPSVLQIAMAFGLGIGTLVQALGHISGAHINPAVTVACLVGCHVSVLRAAFYVAAQLLGAVAGAALLHEITPADIRGDLAVNALSNSTMAGQAVTVELFLTLQLVLCIFASTDERRGENPGTPALSIGFSVALGHLLGIHYTGCSMNPARSLAPAVVTGKFDDHWVFWIGPLVGAILGSLLYNYVLFPPAKSLSERLAVLKGLEPDTDWEEREVRRRQSVELHSPQSLPRGTKA", "values": [{"measurement": "net increase (gain of function) in water permeability (Pf) of oocytes when expressed along wt-AQP2, in % of the wt-AQP2 activity (% of the wt-AQP2 activity)", "setting": "[1]", "value": 42}]}, {"binder": "Aquaporin-2 D150E (untagged) (natural protein, human, UniProt P41181 1-271, looked up, Aquaporin-2 (AQP2), human, recessive NDI mutation D150E from reported clinical cases, made by site-directed mutagenesis in pT7Ts; also called rec-AQP2; source: Xenopus laevis oocytes, cRNA injected; total membranes solubilised in 2% deoxycholate) MWELRSIAFSRAVFAEFLATLLFVFFGLGSALNWPQALPSVLQIAMAFGLGIGTLVQALGHISGAHINPAVTVACLVGCHVSVLRAAFYVAAQLLGAVAGAALLHEITPADIRGDLAVNALSNSTTAGQAVTVELFLTLQLVLCIFASTEERRGENPGTPALSIGFSVALGHLLGIHYTGCSMNPARSLAPAVVTGKFDDHWVFWIGPLVGAILGSLLYNYVLFPPAKSLSERLAVLKGLEPDTDWEEREVRRRQSVELHSPQSLPRGTKA", "values": [{"measurement": "gain of function in water permeability (Pf) of oocytes on coexpression with wt-AQP2 (specific activity with wt-AQP2 minus without), in % of wt-AQP2 activity", "setting": "[3]", "value": "65.2 % of wt-AQP2 activity"}, {"measurement": "co-precipitated untagged band, densitometry in % of wt-AQP2 (wt/rec heteromers)", "setting": "[4]", "value": "86 % of wt-AQP2"}, {"measurement": "co-precipitated untagged band, densitometry in % of wt-AQP2 (rec/rec homomers)", "setting": "[5]", "value": "30 % of wt-AQP2"}]}, {"binder": "Aquaporin-2 V24A (untagged) (natural protein, human, UniProt P41181 1-271, looked up, Aquaporin-2 (AQP2), human, recessive NDI mutation V24A from reported clinical cases, made by site-directed mutagenesis in pT7Ts; also called rec-AQP2; source: Xenopus laevis oocytes, cRNA injected; total membranes solubilised in 2% deoxycholate) MWELRSIAFSRAVFAEFLATLLFAFFGLGSALNWPQALPSVLQIAMAFGLGIGTLVQALGHISGAHINPAVTVACLVGCHVSVLRAAFYVAAQLLGAVAGAALLHEITPADIRGDLAVNALSNSTTAGQAVTVELFLTLQLVLCIFASTDERRGENPGTPALSIGFSVALGHLLGIHYTGCSMNPARSLAPAVVTGKFDDHWVFWIGPLVGAILGSLLYNYVLFPPAKSLSERLAVLKGLEPDTDWEEREVRRRQSVELHSPQSLPRGTKA", "values": [{"measurement": "gain of function in water permeability (Pf) of oocytes on coexpression with wt-AQP2 (specific activity with wt-AQP2 minus without), in % of wt-AQP2 activity", "setting": "[3]", "value": "63.9 % of wt-AQP2 activity"}, {"measurement": "water permeability (Pf) of oocytes injected with 1 ng mRNA mixtures of wt/mut ratios 4/0 to 0/4, in % of pure wt-AQP2; the printed value is of the 2/2 ratio", "setting": "[3]", "value": "87 % of pure wt-AQP2"}, {"measurement": "co-precipitated untagged band, densitometry in % of wt-AQP2 (wt/rec heteromers)", "setting": "[4]", "value": "75 % of wt-AQP2"}, {"measurement": "co-precipitated untagged band, densitometry in % of wt-AQP2 (rec/rec homomers)", "setting": "[6]", "value": "26 % of wt-AQP2"}]}, {"binder": "Aquaporin-2 R187C (untagged) (natural protein, human, UniProt P41181 1-271, looked up) MWELRSIAFSRAVFAEFLATLLFVFFGLGSALNWPQALPSVLQIAMAFGLGIGTLVQALGHISGAHINPAVTVACLVGCHVSVLRAAFYVAAQLLGAVAGAALLHEITPADIRGDLAVNALSNSTTAGQAVTVELFLTLQLVLCIFASTDERRGENPGTPALSIGFSVALGHLLGIHYTGCSMNPACSLAPAVVTGKFDDHWVFWIGPLVGAILGSLLYNYVLFPPAKSLSERLAVLKGLEPDTDWEEREVRRRQSVELHSPQSLPRGTKA", "values": [{"measurement": "gain of function in water permeability (Pf) of oocytes on coexpression with wt-AQP2 (specific activity with wt-AQP2 minus without), in % of wt-AQP2 activity; not functionally recovered", "setting": "[3]", "value": "0.4 % of wt-AQP2 activity"}]}]}
